Assay results reported in the supplement of paper PMC10126150.
± gives the standard deviation of the averaged measurements.

Each sequence was assayed on ATP (assay: switch fluorescence ratio, 500 uM ATP over buffer (Cy3 cluster intensity, sum of 5 cycles each) (fold (ratio)); higher = stronger signal-on switching upon ATP binding; sequences stand for … in TCGTCGGCAGCGTCAGATGTGTATAAGAGACAGTTTTTTTTTTTTTTTTTTTTTTTTT…TC). Settings: aptamer strand: ATP DNA aptamer (quencher-CACCTGGGGGAGTATTGCGGAGGAAGG + anchor), 100 nM annealed; ATP concentration: 500 uM.
How it was run: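 Switching-strand clusters labelled with Cy3 on a modified Illumina MiSeq flow-cell were annealed to 100 nM quencher-labelled ATP aptamer, imaged in selection buffer, and re-imaged after 15 min with 500 uM ATP at 22 °C. This was done over five cycles with NaOH stripping and re-annealing in between. The fluorescence ratio is summed target-cycle over summed buffer-cycle Cy3 intensity per cluster, averaged per switch-domain sequence, excluding clusters outside 100-1000 RFU.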
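Note: ATP exposure 15 min at 22 °C before imaging.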

Sequence | switch fluorescence ratio
CAAGTATTTA | 1.03 ± 0.011
ACTGACAGCG | 1.0189 ± 0.00036
GTACTTGGCT | 1.016 ± 0.0023
TTTTGTCAAA | 1.02 ± 0.035
GACCGAGGGG | 0.989 ± 0.026
CCATGGGTTG | 1.01 ± 0.016
TTTGTTTTTG | 1 ± 0.026
TCGATGGCGC | 1.02 ± 0.023
TTAATAACTT | 1.01 ± 0.019
TGAGTTTTGG | 1.02 ± 0.015
CTGTGTGCGG | 0.97 ± 0.03
CAGATCACGA | 1.01 ± 0.017
CCACGGGGGG | 1.27 ± 0.1
CTTAAAAAGG | 0.989 ± 0.0056
ATTGGCTACT | 0.987 ± 0.013
ATTTCGACAC | 1.0254 ± 0.001
GCATTGCGGC | 0.991 ± 0.019
GGAGAGGGGG | 0.982 ± 0.027
TCTATGAGGG | 1.01 ± 0.023
GTAATTAGAT | 0.969 ± 0.022
GTGAGTACTT | 1.03 ± 0.014
GGGGTGCCTT | 1.037 ± 0.0021
TTAAAAGGCT | 0.9974 ± 0.0012

Sequence | switch fluorescence ratio
GGGGGGCGCG | 1.01 ± 0.025
TACGTAGGGT | 1.19 ± 0.28
GGCGAGGTGT | 1 ± 0.034
GAAACTAGTT | 0.992 ± 0.013
GGTGATGCGC | 0.978 ± 0.034
CGTAAAGGGG | 0.983 ± 0.026
CGGGCGCTGT | 1.06 ± 0.061
AGTTGTACAA | 1.012 ± 0.01
TTAAAACGGT | 1.21 ± 0.31
TTTTGGAAGC | 1.03 ± 0.034
AGGTATTGCG | 0.994 ± 0.044
TTCACGGGTC | 1.06 ± 0.06
TAAGTAAATA | 0.9762 ± 0.004
AAATACAAGG | 1.15 ± 0.24
TTTACGGGGG | 1 ± 0.043
GCTTGTCGGC | 0.99 ± 0.035
GGGATAACGG | 0.962 ± 0.018
GGGATTTTCG | 0.98 ± 0.023
TCGAACTGAT | 1.02 ± 0.03
AACGAAGGTA | 0.9884 ± 0.0011
GTTTGAAAGT | 0.957 ± 0.01
GACGAGGGAT | 1.1 ± 0.034
CGTTATGCCT | 0.975 ± 0.061

Sequence | switch fluorescence ratio
ACAGTTAGGG | 1.02 ± 0.024
TACCGGGGGG | 1.03 ± 0.029
AAAGGGGCGC | 0.993 ± 0.035
ATGGGTACTG | 0.963 ± 0.022
TATGAAGGGG | 1.22 ± 0.34
TTTGACTTCA | 1.03 ± 0.018
GATGTTTGGC | 1.05 ± 0.013
GTTTGTGAAT | 0.9814 ± 0.0086
TTTTTACCTT | 1.07 ± 0.046
AGCTATGTTT | 0.979 ± 0.04
TATAGTGGGG | 1.043 ± 0.0078
AAGGGAGAAA | 0.984 ± 0.06
AACATATGTT | 0.972 ± 0.025
AGTAGAATTG | 0.966 ± 0.054
GACAGGTTGA | 0.993 ± 0.036
TATGGTCCTG | 0.962 ± 0.023
GGGGCGGGGG | 1.02 ± 0.043
GAATATGCCG | 0.972 ± 0.019
GGGGACGGGC | 1.04 ± 0.075
AGGTTAGGCT | 0.989 ± 0.014
GGGGTTATTA | 0.992 ± 0.017
AACCAGGGGC | 1.37 ± 0.091
GCGCTAAGTT | 0.984 ± 0.015

Sequence | switch fluorescence ratio
TGAAGGGGGC | 0.994 ± 0.045
TTTTTATGAT | 0.983 ± 0.022
ACTGTTTGTC | 0.9897 ± 0.0061
AATTTAGGTC | 0.934 ± 0.028
TACGGGACGG | 1.07 ± 0.023
GAGATAAGCC | 1.03 ± 0.022
ACAGCTTTGA | 0.985 ± 0.026
AGCGAACGGG | 1.05 ± 0.025
ATTGTATGGG | 0.9744 ± 0.0071
CATTCATGGA | 1.03 ± 0.035
GCATATCTAG | 1.03 ± 0.041
TTTTTCCTGT | 1.01 ± 0.011
GGGGGAGGTC | 0.989 ± 0.021
CGCCCCAGGA | 1.85 ± 1.1
ATGTCCAAGG | 1.005 ± 0.0071
ATGCTGTTGC | 0.9631 ± 0.0065
TTTAAAAA | 1.02 ± 0.044
TACAGGCGGA | 1.02 ± 0.021
TTTTATATAC | 1.14 ± 0.076
ATGATCAGGG | 1.009 ± 0.01
TGCTAGGAG | 0.995 ± 0.043
ATTACCGGCG | 0.996 ± 0.025
AGATGTTGGG | 0.992 ± 0.07

Sequence | switch fluorescence ratio
TCGTTCGCTA | 3.15 ± 0.39
TTAAGGCTTA | 1.01 ± 0.044
TGCCGAAAGC | 1.018 ± 0.0087
GGGATGGGGC | 1.04 ± 0.042
TTTTCGATTT | 1.42 ± 1
CGCTGTACAG | 0.96028 ± 0.00038
CCGGAAGGGC | 1.84 ± 0.69
TGTTTAATTG | 0.97673 ± 0.0004
CGTTTTCTGT | 0.978 ± 0.024
TCTGAAAAAG | 2.29 ± 1.9
GTATTGGGTT | 1 ± 0.056
CCTTTTATTT | 1.04 ± 0.018
TTAGGGGTAT | 0.996 ± 0.05
GGCAGGCGGA | 1 ± 0.012
GATTAATGAG | 1.01 ± 0.027
TTAATGCGCA | 1 ± 0.019
GGCGAATGGG | 0.98 ± 0.041
CGTACGAAGG | 0.971 ± 0.028
TACGTTTTCT | 1.02 ± 0.049
AGCCGGGGGA | 1.05 ± 0.071
TTAAAATGTT | 1.0072 ± 0.00057
GGAATGCTAT | 0.996 ± 0.013
GAAAGATTAT | 1.03 ± 0.02

Sequence | switch fluorescence ratio
TACGTCTTAG | 0.972 ± 0.048
ACGCCCACGT | 1.22 ± 0.038
CGGGAAGGCT | 1.06 ± 0.13
TGGGGTACGG | 1.004 ± 0.0064
CTAATGTTGT | 1.02 ± 0.028
AGGGCCCCGG | 1.03 ± 0.023
TTATTTGTTA | 1.01 ± 0.041
GGGCAGGTAG | 1.03 ± 0.031
GAGTTAGGCA | 1.029 ± 0.0098
TTTGGCTAAA | 1 ± 0.044
GAAGGTATTG | 0.977 ± 0.013
TTAGAGTAGT | 0.988 ± 0.013
TCCTTATTGG | 1 ± 0.0068
AGTGTTGCGG | 0.952 ± 0.021
ATAAATTGCA | 0.998 ± 0.02
TTTTGTTGTG | 0.999 ± 0.034
TCAATATGTT | 1.004 ± 0.0073
TAGAATGTGG | 0.994 ± 0.042
AATGAGGGGA | 1 ± 0.013
TTTCAGGTCC | 1.03 ± 0.065
TTAATTTCAG | 1.01 ± 0.023
TGGTTTTTGA | 0.988 ± 0.038
GGCGGGTAGA | 1.043 ± 0.0093

Sequence | switch fluorescence ratio
CAAGAGAATT | 0.9939 ± 0.005
GGTTGTCTTA | 0.9726 ± 0.0018
CTTGTATAGC | 0.992 ± 0.028
ATGCATTATG | 1.02 ± 0.016
CGGTATAGCA | 0.971 ± 0.027
ATGTATGTGG | 0.987 ± 0.049
CGGGCGTTGT | 1 ± 0.04
AGTTGGTTAC | 1.01 ± 0.023
TAAGTTAGTT | 0.979 ± 0.027
TTTAAGTCGA | 1.02 ± 0.04
TTCAGGTTTT | 0.99 ± 0.054
TGCTTTTCTT | 0.996 ± 0.018
TAGAATGGCC | 1.01 ± 0.041
CGAGGAGCAT | 1.01 ± 0.058
TAAGTTAAGC | 1 ± 0.064
AGAATTAGGC | 0.999 ± 0.021
TGATGAAAGG | 0.987 ± 0.031
ACGGAAGGGT | 1.04 ± 0.043
TACAAGTTCT | 0.9814 ± 0.0042
